Source: the supplement of paper PMC10126150
± gives the standard deviation of the averaged measurements.

System: ATP
Assay: switch fluorescence ratio, 500 uM ATP over buffer (Cy3 cluster intensity, sum of 5 cycles each) (fold (ratio)); higher = stronger signal-on switching upon ATP binding; sequences stand for … in TCGTCGGCAGCGTCAGATGTGTATAAGAGACAGTTTTTTTTTTTTTTTTTTTTTTTTT…TC
Settings: aptamer strand: ATP DNA aptamer (quencher-CACCTGGGGGAGTATTGCGGAGGAAGG + anchor), 100 nM annealed; ATP concentration: 500 uM
Outline: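 Switching-strand clusters labelled with Cy3 on a modified Illumina MiSeq flow-cell were annealed to 100 nM quencher-labelled ATP aptamer, imaged in selection buffer, and re-imaged after 15 min with 500 uM ATP at 22 °C. This was done over five cycles with NaOH stripping and re-annealing in between. The fluorescence ratio is summed target-cycle over summed buffer-cycle Cy3 intensity per cluster, averaged per switch-domain sequence, excluding clusters outside 100-1000 RFU.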
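Note: ATP exposure 15 min at 22 °C before imaging.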

Row | Sequence | switch fluorescence ratio
1 | GAATGTTAGT | 0.964 ± 0.013
2 | GAATTAAATT | 1.01 ± 0.018
3 | GAATTAACAA | 0.999 ± 0.024
4 | GAATTAATCG | 0.988 ± 0.039
5 | GAATTAGAAA | 0.999 ± 0.014
6 | GAATTCGATC | 1.02 ± 0.029
7 | GAATTGAGCA | 0.996 ± 0.019
8 | GAATTGCTGG | 1.01 ± 0.015
9 | GAATTGGCCT | 1.02 ± 0.019
10 | GAATTGTGGG | 0.989 ± 0.039
11 | GAATTTGGGA | 0.997 ± 0.013
12 | GAATTTGTCC | 0.988 ± 0.013
13 | GAATTTGTTA | 1.026 ± 0.0059
14 | GACAAAAAAA | 1.06 ± 0.012
15 | GACAAAACTA | 1.16 ± 0.064
16 | GACACACAAA | 1.18 ± 0.11
17 | GACACACAAG | 1.14 ± 0.016
18 | GACACCAAAT | 1.039 ± 0.0035
19 | GACACGGCAT | 1.13 ± 0.018
20 | GACACTCAGG | 1.083 ± 0.0013
21 | GACAGAGGTT | 1 ± 0.021
22 | GACAGATCCC | 0.982 ± 0.014

Row | Sequence | switch fluorescence ratio
23 | GACAGCTTGG | 1.0064 ± 9.5e-05
24 | GACAGGGAAC | 1.01 ± 0.021
25 | GACAGGGGCC | 0.987 ± 0.018
26 | GACAGGGGCG | 1.19 ± 0.16
27 | GACAGGGTTG | 1.001 ± 0.0062
28 | GACATCGGCA | 1.03 ± 0.016
29 | GACATGTAAA | 1.048 ± 0.0023
30 | GACCAGGGAT | 1.088 ± 0.0031
31 | GACCAGTAAG | 0.9819 ± 0.0091
32 | GACCCGATTA | 1.02 ± 0.034
33 | GACCCGTCAG | 1.01 ± 0.013
34 | GACCCTATTC | 1.09 ± 0.05
35 | GACCGGGCTT | 0.9753 ± 0.0038
36 | GACCGGTGGG | 0.9787 ± 0.0065
37 | GACCTATTTC | 1.01 ± 0.019
38 | GACCTGGGGC | 0.973 ± 0.068
39 | GACGAACCGG | 1.051 ± 0.0095
40 | GACGAAGTTT | 1.32 ± 0.7
41 | GACGAATCCA | 1.03 ± 0.046
42 | GACGACGATG | 1.016 ± 0.0022
43 | GACGACGTTG | 1.06 ± 0.026
44 | GACGAGTTTT | 1.01 ± 0.022

Row | Sequence | switch fluorescence ratio
45 | GACGATGGGT | 1.029 ± 0.0032
46 | GACGATTCTT | 0.97989 ± 0.00092
47 | GACGGATGAC | 1.33 ± 0.15
48 | GACGGGAGGG | 1.02 ± 0.02
49 | GACGGGATGG | 0.993 ± 0.056
50 | GACGGGGACA | 1.06 ± 0.023
51 | GACGGGGCAG | 0.995 ± 0.015
52 | GACGGGGGCA | 0.99948 ± 0.00073
53 | GACGGGGGGT | 1 ± 0.041
54 | GACGGGTATA | 1.36 ± 0.47
55 | GACGGTAACT | 1.14 ± 0.059
56 | GACGGTGGCT | 1.01 ± 0.023
57 | GACGTAATTA | 1.5 ± 0.045
58 | GACGTATATG | 0.973 ± 0.048
59 | GACGTCAGGG | 0.997 ± 0.052
60 | GACGTGGGGC | 1.131 ± 0.0064
61 | GACGTGGTAG | 1.03 ± 0.016
62 | GACGTGTAGT | 1.02 ± 0.025
63 | GACGTTCTGT | 1.03 ± 0.063
64 | GACGTTTTGT | 0.96221 ± 0.00058
65 | GACTAAAGGT | 1.01 ± 0.013
66 | GACTAAAGTA | 1.05 ± 0.074

Row | Sequence | switch fluorescence ratio
67 | GACTAAGACT | 1.01 ± 0.026
68 | GACTACTAGC | 1.05 ± 0.045
69 | GACTAGAGGG | 0.99 ± 0.034
70 | GACTAGGGGT | 1.005 ± 0.0078
71 | GACTCCAGGC | 1.22 ± 0.069
72 | GACTCTGGGA | 1.11 ± 0.027
73 | GACTCTTGCG | 0.964 ± 0.029
74 | GACTGATACC | 1.17 ± 0.035
75 | GACTGCTGTG | 1.012 ± 0.0085
76 | GACTGGGGTT | 0.9891 ± 0.0059
77 | GACTGGTAAT | 1.047 ± 0.0072
78 | GACTGTCGG | 1.002 ± 0.0068
79 | GACTGTGGCA | 1.013 ± 0.0021
80 | GACTGTTAAG | 1.02 ± 0.017
81 | GACTGTTACA | 1.2 ± 0.017
82 | GACTGTTGTC | 0.9972 ± 0.0059
83 | GACTTAGCTT | 1.046 ± 0.0055
84 | GACTTATGGG | 1.04 ± 0.033
85 | GACTTATTAT | 1.001 ± 0.0041
